Biological target: F-actin (rabbit skeletal muscle α-actin filaments) (rabbit) (UniProt P68135)
Experiment: co-sedimentation

Kd: 8.5 µM
Substance: F-tractinopt-mCherry (peptide)
